Laboratory results as given in publication doi:10.1101/2021.06.09.447696, “A dual allosteric pathway drives human mitochondrial Lon” (bioRxiv, 2021).

B2: human mitochondrial Lon (68-959) K898A (enzyme, UniProt P36776 68-959, looked up)
chain: FWEASSRGGGAFSGGEDASEGGAEEGAGGAGGSAGAGEGPVITALTPMTIPDVFPHLPLIAITRNPVFPRFIKIIEVKNKKLVELLRRKVRLAQPYVGVFLKRDDSNESDVVESLDEIYHTGTFAQIHEMQDLGDKLRMIVMGHRRVHISRQLEVEPEEPEAENKHKPRRKSKRGKKEAEDELSARHPAELAMEPTPELPAEVLMVEVENVVHEDFQVTEEVKALTAEIVKTIRDIIALNPLYRESVLQMMQAGQRVVDNPIYLSDMGAALTGAESHELQDVLEETNIPKRLYKALSLLKKEFELSKLQQRLGREVEEKIKQTHRKYLLQEQLKIIKKELGLEKDDKDAIEEKFRERLKELVVPKHVMDVVDEELSKLGLLDNHSSEFNVTRNYLDWLTSIPWGKYSNENLDLARAQAVLEEDHYGMEDVKKRILEFIAVSQLRGSTQGKILCFYGPPGVGKTSIARSIARALNREYFRFSVGGMTDVAEIKGHRRTYVGAMPGKIIQCLKKTKTENPLILIDEVDKIGRGYQGDPSSALLELLDPEQNANFLDHYLDVPVDLSKVLFICTANVTDTIPEPLRDRMEMINVSGYVAQEKLAIAERYLVPQARALCGLDESKAKLSSDVLTLLIKQYCRESGVRNLQKQVEKVLRKSAYKIVSGEAESVEVTPENLQDFVGKPVFTVERMYDVTPPGVVMGLAWTAMGGSTLFVETSLRRPQDKDAKGDKDGSLEVTGQLGEVMKESARIAYTFARAFLMQHAPANDYLVTSHIHLHVPEGATPKDGPSAGCTIVTALLSLAMGRPVRQNLAMTGEVSLTGKILPVGGIKEATIAAKRAGVTCIVLPAENKKDFYDLAAFITEGLEVHFVEHYREIFDIAFPDEQAEALAVER
notes: human mitochondrial LonP1, mature protein, residues 68-959 of UniProt P36776, with K898A; The substrate is trapped as a covalent ester intermediate on S855; also called Lon^K898A; substrate-trapped Lon; not shown: His6, N-terminal, cleaved

Assays:
[1] = molecular target: the molecule itself; assay: cryo-EM structure; 0.5-0.7 mg/ml Lon construct in 20 mM HEPES pH 7.5, 100 mM NaCl, 10 mM MgCl2, 3% glycerol, 2 mM ATP added to 0.2 mg/ml TFAM, 30 s at room temperature, then vitrified; single-particle reconstruction
[2] = molecular target: the molecule itself; assay: SEC; Superose 6 Increase 3.2/300; 25 mM Tris-HCl pH 8.0, 10% glycerol, 1 mM DTT, 50 mM NaCl, 2 mM ATP; protein incubated at 37°C for 10 min with 2 mM ATP and 10 mM MgCl2; fractions analysed by SDS-PAGE
[3] = molecular target: B2; assay: cryo-EM structure; 0.5-0.7 mg/ml Lon construct in 20 mM HEPES pH 7.5, 100 mM NaCl, 10 mM MgCl2, 3% glycerol, 2 mM ATP added to 0.2 mg/ml TFAM, 30 s at room temperature, then vitrified; single-particle reconstruction; conditions: both partners purified
[4] = molecular target: T1, human mitochondrial Lon, full-length mature form (68-959), wild type (human, UniProt P36776 68-959); assay: as above; conditions: both partners purified
T1 construct: human mitochondrial LonP1, mature protein, residues 68-959 of UniProt P36776; Homohexamer in the cryo-EM structure; vector pNIC28-Bsa4; also called LonP1; wt-Lon; not shown: His6, N-terminal, cleaved
T1 sequence (looked up): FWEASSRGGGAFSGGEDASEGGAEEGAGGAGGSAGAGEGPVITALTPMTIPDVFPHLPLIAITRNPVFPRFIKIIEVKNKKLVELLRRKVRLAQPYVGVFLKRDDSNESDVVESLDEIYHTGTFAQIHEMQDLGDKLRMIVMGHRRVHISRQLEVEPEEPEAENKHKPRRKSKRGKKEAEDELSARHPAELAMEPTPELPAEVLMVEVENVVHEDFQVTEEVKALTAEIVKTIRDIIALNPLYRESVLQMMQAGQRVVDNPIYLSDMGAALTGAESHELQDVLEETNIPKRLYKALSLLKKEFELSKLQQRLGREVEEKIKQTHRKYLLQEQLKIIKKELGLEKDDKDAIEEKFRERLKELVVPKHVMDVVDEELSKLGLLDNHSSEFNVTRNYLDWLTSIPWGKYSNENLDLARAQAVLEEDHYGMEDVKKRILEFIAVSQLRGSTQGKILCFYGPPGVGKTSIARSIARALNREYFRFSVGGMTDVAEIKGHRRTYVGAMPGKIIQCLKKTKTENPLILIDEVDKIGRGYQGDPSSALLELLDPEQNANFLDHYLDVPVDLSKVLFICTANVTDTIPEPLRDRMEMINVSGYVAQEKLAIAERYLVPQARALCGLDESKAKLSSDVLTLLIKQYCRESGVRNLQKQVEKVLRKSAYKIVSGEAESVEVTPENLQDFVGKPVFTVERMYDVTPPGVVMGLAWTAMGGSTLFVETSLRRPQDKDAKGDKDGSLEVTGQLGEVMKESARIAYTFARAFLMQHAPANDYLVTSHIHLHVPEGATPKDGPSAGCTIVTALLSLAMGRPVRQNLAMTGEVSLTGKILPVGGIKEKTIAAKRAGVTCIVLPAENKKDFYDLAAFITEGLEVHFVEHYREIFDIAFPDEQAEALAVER

B1: human mitochondrial Lon (68-959) G106P, R563W, K594M (enzyme, UniProt P36776 68-959, looked up)
chain: FWEASSRGGGAFSGGEDASEGGAEEGAGGAGGSAGAGEPPVITALTPMTIPDVFPHLPLIAITRNPVFPRFIKIIEVKNKKLVELLRRKVRLAQPYVGVFLKRDDSNESDVVESLDEIYHTGTFAQIHEMQDLGDKLRMIVMGHRRVHISRQLEVEPEEPEAENKHKPRRKSKRGKKEAEDELSARHPAELAMEPTPELPAEVLMVEVENVVHEDFQVTEEVKALTAEIVKTIRDIIALNPLYRESVLQMMQAGQRVVDNPIYLSDMGAALTGAESHELQDVLEETNIPKRLYKALSLLKKEFELSKLQQRLGREVEEKIKQTHRKYLLQEQLKIIKKELGLEKDDKDAIEEKFRERLKELVVPKHVMDVVDEELSKLGLLDNHSSEFNVTRNYLDWLTSIPWGKYSNENLDLARAQAVLEEDHYGMEDVKKRILEFIAVSQLRGSTQGKILCFYGPPGVGKTSIARSIARALNREYFRFSVGGMTDVAEIKGHRWTYVGAMPGKIIQCLKKTKTENPLILIDEVDMIGRGYQGDPSSALLELLDPEQNANFLDHYLDVPVDLSKVLFICTANVTDTIPEPLRDRMEMINVSGYVAQEKLAIAERYLVPQARALCGLDESKAKLSSDVLTLLIKQYCRESGVRNLQKQVEKVLRKSAYKIVSGEAESVEVTPENLQDFVGKPVFTVERMYDVTPPGVVMGLAWTAMGGSTLFVETSLRRPQDKDAKGDKDGSLEVTGQLGEVMKESARIAYTFARAFLMQHAPANDYLVTSHIHLHVPEGATPKDGPSAGCTIVTALLSLAMGRPVRQNLAMTGEVSLTGKILPVGGIKEKTIAAKRAGVTCIVLPAENKKDFYDLAAFITEGLEVHFVEHYREIFDIAFPDEQAEALAVER
notes: human mitochondrial LonP1, mature protein, residues 68-959 of UniProt P36776, with the mutations G106P, R563W and K594M that arose spontaneously on cloning; also called Lon^Apo; substrate-free form of Lon; not shown: His6, N-terminal, cleaved
Q: Does B1 bind [1]?
A: binds

Q: With B2 as the binder, how does the “stoichiometry N” value [1] read?
A: 6

B3: human mitochondrial Lon (68-959) L396A (enzyme, UniProt P36776 68-959, looked up)
chain: FWEASSRGGGAFSGGEDASEGGAEEGAGGAGGSAGAGEGPVITALTPMTIPDVFPHLPLIAITRNPVFPRFIKIIEVKNKKLVELLRRKVRLAQPYVGVFLKRDDSNESDVVESLDEIYHTGTFAQIHEMQDLGDKLRMIVMGHRRVHISRQLEVEPEEPEAENKHKPRRKSKRGKKEAEDELSARHPAELAMEPTPELPAEVLMVEVENVVHEDFQVTEEVKALTAEIVKTIRDIIALNPLYRESVLQMMQAGQRVVDNPIYLSDMGAALTGAESHELQDVLEETNIPKRLYKALSLLKKEFELSKLQQRLGREVEEKIKQTHRKYLAQEQLKIIKKELGLEKDDKDAIEEKFRERLKELVVPKHVMDVVDEELSKLGLLDNHSSEFNVTRNYLDWLTSIPWGKYSNENLDLARAQAVLEEDHYGMEDVKKRILEFIAVSQLRGSTQGKILCFYGPPGVGKTSIARSIARALNREYFRFSVGGMTDVAEIKGHRRTYVGAMPGKIIQCLKKTKTENPLILIDEVDKIGRGYQGDPSSALLELLDPEQNANFLDHYLDVPVDLSKVLFICTANVTDTIPEPLRDRMEMINVSGYVAQEKLAIAERYLVPQARALCGLDESKAKLSSDVLTLLIKQYCRESGVRNLQKQVEKVLRKSAYKIVSGEAESVEVTPENLQDFVGKPVFTVERMYDVTPPGVVMGLAWTAMGGSTLFVETSLRRPQDKDAKGDKDGSLEVTGQLGEVMKESARIAYTFARAFLMQHAPANDYLVTSHIHLHVPEGATPKDGPSAGCTIVTALLSLAMGRPVRQNLAMTGEVSLTGKILPVGGIKEKTIAAKRAGVTCIVLPAENKKDFYDLAAFITEGLEVHFVEHYREIFDIAFPDEQAEALAVER
notes: human mitochondrial LonP1, mature protein, residues 68-959 of UniProt P36776, with L396A; also called L396A Lon mutant; Lon L396A; not shown: His6, N-terminal, cleaved
Q: Does B3 bind [2]?
A: binds

B4: mitochondrial transcription factor A, mature (amino acids 43-246) (natural protein, UniProt Q00059 43-246, looked up)
chain: SSVLASCPKKPVSSYLRFSKEQLPIFKAQNPDAKTTELIRRIAQRWRELPDSKKKIYQDAYRAEWQVYKEEISRFKEQLTPSQIMSLEKEIMDKHLKRKAMTKKKELTLLGKPKRPRSAYNVYVAERFQEAKGDSPQEKLKTVKENWKNLSDSEKELYIQHAKEDETRYHNEMKSWEEQMIEVGRKDLLRRTIKKQRKYGAEEC
notes: mitochondrial transcription factor A (TFAM), mature, amino acids 43-246; also called TFAM; substrate; not shown: His6, N-terminal, cleaved
Q: Does B4 bind [3]?
A: binds

Q: Does B4 bind [4]?
A: binds
